Source: patent publication US20220048951A1
Values joined by “and” are separate entries in the source; they are usually repeats but may differ in a detail not shown here. Identical values can stand only once.

T1: CD20 on CD20 positive lymphoma cells (Daudi, Raji) (human) (UniProt P11836)
T1 sequence: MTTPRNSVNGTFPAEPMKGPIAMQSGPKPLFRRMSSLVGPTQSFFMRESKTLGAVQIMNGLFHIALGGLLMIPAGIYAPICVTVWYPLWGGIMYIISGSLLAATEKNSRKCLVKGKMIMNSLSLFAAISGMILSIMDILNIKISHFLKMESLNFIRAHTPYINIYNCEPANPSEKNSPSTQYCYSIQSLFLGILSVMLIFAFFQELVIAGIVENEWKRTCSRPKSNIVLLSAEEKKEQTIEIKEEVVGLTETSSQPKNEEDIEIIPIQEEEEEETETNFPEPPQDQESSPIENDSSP

B1: anti-CD20 scFv-Phor18 conjugate (C-terminus) (scFv)
scFv: HHHHHHDIQLTQSPAILSASPGEKVTMTCRASSSVSYIHWFQQKPGSSPKPWIYATSNLASGVPVRFSGSGSGTSYSLTISRVEAEDAATYYCQQWTSNPPTFGGGTKLEIGSTSGGGSGGGSGGGGSSVQLQQPGAELVKPGASVKMSCKASGYTFTSYNMHWVKQTPGRGLEWIGAIYPGNGDTSYNQKFKGKATLTADKSSSTAYMQLSSLTSEDSAVYYCARSTYYGGDWYFDVWGQGTTVTVSSGSKFAKFAKKFAKFAKKFAK
B2: anti-CD20-Phor18 minibody conjugate Fv-CH3-CH3-Fv-Phor18 (protein)
chain: DIQLTQSPAILSASPGEKVTMTCRASSSVSYIHWFQQKPGSSPKPWIYATSNLASGVPVRFSGSGSGTSYSLTISRVEAEDAATYYCQQWTSNPPTFGGGTKLEIGSTSGGGSGGGSGGGGSSVQLQQPGAELVKPGASVKMSCKASGYTFTSYNMHWVKQTPGRGLEWIGAIYPGNGDTSYNQKFKGKATLTADKSSSTAYMQLSSLTSEDSAVYYCARSTYYGGDWYFDVWGQGTTVTVSSGQPREPQVYTLPPSRDELTKNQVSLTCLVKGFYPSDIAVEWESNGQPENNYKTTPPVLDSDGSFFLYSKLTVDKSRWQQGNVFSCSVMHEALHNHYTQKSLSLSPGKGSTSGGGSGGGSGGGGSSGQPREPQVYTLPPSRDELTKNQVSLTCLVKGFYPSDIAVEWESNGQPENNYKTTPPVLDSDGSFFLYSKLTVDKSRWQQGNVFSCSVMHEALHNHYTQKSLSLSPGKVQLQQPGAELVKPGASVKMSCKASGYTFTSYNMHWVKQTPGRGLEWIGAIYPGNGDTSYNQKFKGKATLTADKSSSTAYMQLSSLTSEDSAVYYCARSTYYGGDWYFDVWGQGTTVTVSSGSTSGGGSGGGSGGGGSSDIQLTQSPAILSASPGEKVTMTCRASSSVSYIHWFQQKPGSSPKPWIYATSNLASGVPVFSGSGSGTSYSLTISRVEAEDAATYYCQQWTSNPPTFGGGTKLEIGSKFAKFAKKFAKFAKKFAK

Biological target: T1, CD20 on CD20 positive lymphoma cells (Daudi, Raji) (human)
Assay: cell-based or functional assay

Binder | IC50 nM, cell viability 24 h, Daudi (CD20 positive) [nM] | IC50 nM, cell viability 46 h, Daudi (CD20 positive) [nM] | IC50 nM, membrane integrity 2 h, Daudi (CD20 positive) [nM] | IC50 nM, membrane integrity 5 h, Daudi (CD20 positive) [nM] | caspase 3/7 activation relative to staurosporine (100%), CD20 positive cells, 5 h
B1 | 10 | 1.5 | 110 | 112 | 18.3% and 29.3%
B2 | 10.5 | 3.6 | – | – | –
